The labels stand for the following.
B1: Trypanosoma brucei centrin5 (TbCentrin5), purified, His-tag removed (natural protein, UniProt Q382E7 1-186, looked up)
chain: MEGPKLKGAARCAAVEKVESKTQLSIAISEKHKAQLREAFDFFDSDGTGRINAQDVKVAFCALGYEVGKEELTHLLRQVGASTTGVIDFNDFYSVIIAKIMQRENRSEAIRAFKLIDTGEKGYINVDDLRPIAASLQMNLTDDELAEMVLFAHPSATYSKADTEMKDPLTVSEEEFLKLMNRAHVY
notes: TbCentrin5 of Trypanosoma brucei, Tb927.11.13900, full-length gene amplified from genomic DNA; 186 amino acids, about 20 kDa calculated; also called centrin5 of T. brucei; Tb927.11.13900; source: E. coli BL21 (DE3), purified (TEV digestion, gel filtration Sephadex G-75); not shown: His-tag, N-terminal, cleaved

Data set [1] deals with T1, TbCentrin3, purified for ITC (Trypanosoma brucei, UniProt Q38AA2 1-165).
T1 chain: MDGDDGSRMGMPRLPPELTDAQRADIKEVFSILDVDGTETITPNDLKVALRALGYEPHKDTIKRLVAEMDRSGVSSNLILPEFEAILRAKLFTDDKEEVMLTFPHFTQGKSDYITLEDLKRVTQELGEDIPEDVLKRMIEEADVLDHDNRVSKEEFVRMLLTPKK
In words: ITC. For orientation: Isothermal titration calorimetry measures the heat released or taken up as one component is titrated into another.

Data set [2] addresses T2, TbCentrin4, purified for ITC (Trypanosoma brucei, UniProt Q57WF6 1-149).
T2 chain: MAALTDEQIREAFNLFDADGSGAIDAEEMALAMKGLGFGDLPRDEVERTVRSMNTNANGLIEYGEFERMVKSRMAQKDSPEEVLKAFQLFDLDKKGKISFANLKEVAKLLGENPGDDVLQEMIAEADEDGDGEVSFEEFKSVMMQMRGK
Nature of the data set: ITC.

Data set [3] deals with the molecule itself. Nature of the data set: SEC; gel filtration on Superdex G-75 column, elution at about 66 mL corresponding to about 36 kDa; SDS/PAGE showed no disulfide bond. Background: SEC sorts molecules by how far they enter the pores of the column.
The target in data set [4] is B1. In words: ITC; iTC200, 16 °C, 20 mM Tris/HCl pH 7.0, 100 mM NaCl; 50 uM TbCentrin1/2/3/4 in the cell, 0.5 mM TbCentrin5 in the syringe; without EGTA treatment. As to conditions: both partners purified.

For orientation: Kd means the free concentration of one partner at which half of the binding sites on the other are occupied at equilibrium, for simple one-to-one binding. What is called stoichiometry N is a count of units in the complex or per binding partner.

For the molecule B1, the Kd worked out at 56 µM in data set [1] and 16 µM in data set [2]. Further, the “stoichiometry N” value in data set [3] came out at 2.

B2: TbCentrin4, purified for ITC (natural protein, Trypanosoma brucei, UniProt Q57WF6 1-149, looked up)
chain: MAALTDEQIREAFNLFDADGSGAIDAEEMALAMKGLGFGDLPRDEVERTVRSMNTNANGLIEYGEFERMVKSRMAQKDSPEEVLKAFQLFDLDKKGKISFANLKEVAKLLGENPGDDVLQEMIAEADEDGDGEVSFEEFKSVMMQMRGK
notes: TbCentrin4 of Trypanosoma brucei, Tb927.07.3410; Cloning, tag and host of this protein are not described; also called TbCentirn4; Tb927.07.3410; source: purified and equilibrated as above (gel filtration Sephadex G-75)
Turning to B2, in data set [4], the Kd came to 12 µM.

B3: TbCentrin3, purified for ITC (natural protein, Trypanosoma brucei, UniProt Q38AA2 1-165, looked up)
chain: MDGDDGSRMGMPRLPPELTDAQRADIKEVFSILDVDGTETITPNDLKVALRALGYEPHKDTIKRLVAEMDRSGVSSNLILPEFEAILRAKLFTDDKEEVMLTFPHFTQGKSDYITLEDLKRVTQELGEDIPEDVLKRMIEEADVLDHDNRVSKEEFVRMLLTPKK
notes: TbCentrin3 of Trypanosoma brucei, Tb927.10.8710; Cloning, tag and host of this protein are not described; also called Tb927.10.8710; source: purified and equilibrated as above (gel filtration Sephadex G-75)
The molecule B3 registered a dissociation constant (Kd) in data set [4] of 52 µM.

B4: TbCentrin1, purified for ITC (natural protein, Trypanosoma brucei, UniProt Q584G1 1-182, looked up)
chain: MSSSRPATGNRLAVPIRTNLPVPAPRKRRFELTDEQRQEIREAFELFDSDKNGLIDAHEMKVSMRALGFDAKKEEVLRMMQDCAARDQHNNPLMDLAGFTDLMTERFAQRDPRQEMIKAFQLFDENNTGKISLRSLRRVARELGENMTDEELQAMIDEFDTDQDGEINLDEFLAIMLEDDDY
notes: TbCentrin1 of Trypanosoma brucei, Tb927.04.2260; Cloning, tag and host of this protein are not described; also called Tb927.04.2260; source: purified and equilibrated as above (gel filtration Sephadex G-75)
On to B4, for which the affinity in data set [4], expressed as Kd, was 105 µM.

Source of the values: article PMC6668372, “Trypanosoma brucei centrin5 is enriched in the flagellum and interacts with other centrins in a calcium‐dependent manner” (FEBS Open Bio, 2019).
